The target in the assay is E. coli derived recombinant CRM197 (cross reacting material 197) (Corynebacterium diphtheriae C7 (β197)). The assay can be described thus: crystal structure; sitting drop, room temperature; 22.9 mg/ml protein in 0.15 M NaCl, 0.01 M Tris/HCl pH 8.3 mixed 1:1 with 0.2 M lithium sulfate, 0.1 M Bis-Tris pH 5.5, 25% (w/v) PEG 3350; data at 100 K; four molecules in the asymmetric unit (two domain-swapped dimers).

The term stoichiometry N denotes a count of units in the complex or per binding partner. Turning to “E. coli derived recombinant CRM197 (cross reacting material 197) (natural protein)”, the stoichiometry N came out at 2.

The record behind these values is PMC6153374.
